As usually defined, the Km is the concentration of substrate that gives half-maximal velocity. One may read the kcat as the maximal rate divided by the concentration of active sites.

For data set [1], the system named is glutathione reductase (GR). The data set can be described thus: stopped-flow, NAD. It is filed as biochemical. To be noted: read-out: apparent KM; 180 µM NAD(P)H, 10 nM enzyme, 50 to 250 µM HOSCN, 100 mM sodium phosphate pH 7.4, aerobic.
Substrate in the data set “purified protein”: O=S(=O)(O)CCNCl
Nature of the data set: purified protein. To be noted: 100 µM NADH, 10 µM enzyme, 20 mM HEPES, 100 mM NaCl pH 7, anaerobic.

As to `N#CSO` [HOSCN, hypothiocyanous acid], in data set [1], the Km turned out to be 81 µM.

B1: RclA (Escherichia coli K-12) (protein)
chain: MNKYQAVIIGFGKAGKTLAVTLAKAGWRVALIEQSNAMYGGTCINIGCIPTKTLVHDAQQHTDFVRAIQRKNEVVNFLRNKNFHNLADMPNIDVIDGQAEFINNHSLRVHRPEGNLEIHGEKIFINTGAQTVVPPIPGITTTPGVYDSTGLLNLKELPGHLGILGGGYIGVEFASMFANFGSKVTILEAASLFLPREDRDIADNIATILRDQGVDIILNAHVERISHHENQVQVHSEHAQLAVDALLIASGRQPATASLHPENAGIAVNERGAIVVDKRLHTTADNIWAMGDVTGGLQFTYISLDDYRIVRDELLGEGKRSTDDRKNVPYSVFMTPPLSRVGMTEEQARESGADIQVVTLPVAAIPRARVMNDTRGVLKAIVDNKTQRMLGASLLCVDSHEMINIVKMVMDAGLPYSILRDQIFTHPSMSESLNDLFSLVK
With B1, in the data set “purified protein”, the Km was found to be 12700 µM and the kcat is 33 s⁻¹.

The record behind these values is PMC9335216 (Proceedings of the National Academy of Sciences of the …, 2022).
